From the RNAGym collection of RNA variant scans (doi:10.7554/elife.80360)

B1: HDV Ribozyme (parent)
chain: GGCCGGCAUGGUCCCAGCCUCCUCGCUGGCGCCGGCUGGGCAACAUUCCGAGGGGACCGUCCCCUCGGUAAUGGCGAAUGGGACCCA

Variants of: B1
Experiment: self-cleavage, relative activity (ratio to wild type); higher = more cleavage; co-transcriptional

Variant | self-cleavage
U23C G81A | 0.591
G39U A71U | 0.431
U9A A51C | 0.923
C33U C61A | 0.721
G28A G40U | 0.0256
C14A G67C | 0.554
A45G U46G | 0.643
A78G G80U | 0.12
C13A G29U | 0.0782
C30G U46A | 0.0906
U23C G34C | 0.172
C64U C85U | 1.08
U20A U60A | 0.142
C14A G82C | 0.172
G10C C15U | 0.582
U60C G73C | 0.465
C15U A77U | 0.246
G28A G67A | 0.0936
C15G G50C | 0.575
C3A G68U | 0.465
G53C C62G | 1.01
G31C G76U | 0.463
G11C G38U | 0.0845
G31A G73U | 0.229

Variant | self-cleavage
A51U U60A | 1.14
G31A U79G | 0.266
C26A G81A | 0.712
A70C G80U | 0.217
G39C C41U | 0.554
C22U G38U | 0.149
C22U C49G | 0.684
G76C G81U | 0.475
U12A C15A | 0.19
G28C G74A | 0.108
C30G C61A | 0.0252
A42C G50A | 0.325
C33A A83U | 0.217
G82U A87C | 0.406
A78G C84G | 0.185
A56C C86U | 1.03
G29U A87C | 0.0349
A77C A83C | 0.172
G2A A70U | 0.228
C32U A43G | 0.63
G59U A70G | 1.12
C58U G59C | 0.923
C26U G38C | 0.155
U69G U72C | 0.485

Variant | self-cleavage
A16C G68C | 0.748
G35A A43C | 0.0272
G67A G73U | 0.227
U47A U69A | 1.02
C44G C66G | 0.554
G55U G81A | 0.287
G38C C64A | 0.228
C4A C62A | 0.177
C14U G76C | 1.06
C32G A56U | 0.0482
C62U G73U | 0.472
G2A C33G | 0.0378
G67A G68C | 0.707
U72A G73C | 0.628
A16U U72C | 0.569
A56U C57G | 1.08
C41U G80U | 0.174
C13G G28C | 0.0504
G10A C85U | 0.946
U9G G25A | 0.0755
A51C U60C | 1.15
U60C A87C | 1.05
G28A C44A | 0.104
G11C G59A | 0.434

Variant | self-cleavage
C7U U37G | 0.19
C32A C64G | 0.131
U27C U46A | 0.529
U23G U72C | 0.391
A45G G50A | 0.707
C4U G52C | 0.776
G38A C49A | 0.172
U47G C49U | 1.32
G10U A45G | 1.07
U65C A83C | 0.867
U65C C66U | 1.04
G2A C62U | 0.0886
U72G C86G | 0.6
G25U C36U | 0.218
G39U C49A | 0.604
C32U G39U | 0.486
C3G C13U | 0.229
G6A C58A | 0.724
G55U C57G | 0.997
C3G C14A | 0.383
G5C G82A | 0.123
C15A G35U | 0.188
G40A C75G | 0.305
C30G G82A | 0.0941

Variant | self-cleavage
A45U C58A | 0.539
G25U G53A | 0.19
U9G G31A | 0.675
U27C U37G | 0.0923
G6U G68C | 0.383
G25C A71G | 0.131
A8G U65G | 0.906
G39U G81C | 0.119
G28A C48A | 0.0978
C32G G39U | 0.0563
C21U G53U | 0.234
C62G G80C | 0.0791
U65A G76C | 1.11
G35A U79C | 0.282
A8C C57U | 0.895
A56C A70U | 1.16
G25U A45U | 0.172
G53A C84U | 0.777
A16G G38U | 0.341
G34U G35U | 0.175
C58G G74A | 0.499
C41G A77G | 0.268
U46G G53A | 0.527
G28U G50A | 0.0791

Variant | self-cleavage
C7G A43U | 0.0573
C22G C63A | 0.166
C41U C62U | 0.92
A16U G81A | 0.813
G1U G76A | 0.62
G28A G76C | 0.156
C3A C18U | 0.00889
G10A G73U | 0.159
C61U C64G | 0.308
G10A C75G | 0.086
G67U A87C | 0.925
C15A G54C | 0.806
G17A G74A | 0.132
A8C U46A | 0.217
G52A G82U | 0.367
G35U G68C | 0.4
C7A C84U | 0.366
G28A C44G | 0
C18A G54C | 0.189
C15G C61A | 0.516
U23G G54U | 0.9
C19A G59A | 0.125
G54U U79C | 0.513
G35U C85A | 0.373

Variant | self-cleavage
G6C C44A | 0.208
G10U C58U | 0.982
C18U G76U | 1.05
G29C C75U | 0.0287
C58A G76A | 1.02
A42G G59U | 0.608
C36U U79A | 0.253
C13U U47A | 0.646
C24U U79A | 0.208
C21A U69A | 0.175
U69G C85U | 0.811
C22G U79A | 0.0615
G6C C57U | 0.269
A56G U60G | 0.831
C57G | 1.02
C21G G67U | 0.0723
G2A G59A | 0.208
U20C C64U | 0.244
G1A G50U | 0.128
G10A A56G | 0.695
A43C G73C | 0.309
G52C A56C | 0.95
G17C A70C | 0.0536
G6C G59U | 0.314

Variant | self-cleavage
G52C U60A | 1.02
G11U A87C | 0.415
C18G C75G | 0.229
G2C C7G | 0.0692
C49G C84A | 0.652
U46A G54U | 0.684
U60C A70G | 1.15
G5U G35C | 0
U27G G52A | 1.02
C57A G67A | 0.926
U46G C58A | 0.639
C33G G67U | 0.111
C32A U37C | 0.203
A16G A42C | 0.0755
C75G C84G | 0.282
U46C C64A | 0.569
U20C G39A | 0
G6U C21A | 0.227
C15A A45G | 0.8
C41G G54C | 0.849
C19U C86A | 0.194
C18U U20A | 0.0339
C18U A70U | 0.658
C26G G73U | 0.291

Variant | self-cleavage
U60C A77C | 0.575
A42G G73C | 0
G2A G11U | 0.0328
C13U C36G | 0.0723
G50A A56G | 1.15
C21U G29C | 0.0773
C62G G76C | 0.937
A70C A77U | 0.237
G6C G54A | 0.415
G11C A16U | 0.434
G52A A71C | 0.744
C21A A43U | 0.0944
C3A C32G | 0.0266
G10C C18A | 0.0906
U47G C61G | 0.554
C7A A78U | 0.0791
C58U A87U | 0.915
C64A C86G | 0.923
C19U A42C | 0.104
C48A U65A | 0.845
A78U G80A | 0.111
C36G G67A | 0.157
U12A U47A | 0.302
C22G G52U | 0.0314

Variant | self-cleavage
C62U | 0.994
C58U U79C | 0.38
C7A U47A | 0.697
G6A U27A | 0.514
G11U C19G | 0.058
U27C C86G | 1.2
G17C C21U | 0.0923
U27C G50U | 0.628
G40U A56U | 0.801
G53A C58G | 0.935
A83U C85U | 0.446
C14A U27A | 0.739
A8U U23A | 0.804
U72G G80U | 0.0963
G11A G53A | 0.437
C58A C86U | 1.1
G1A C41G | 0
C64A C84U | 0.694
C61A G73C | 0.415
C33U C75G | 0.222
G6U C7G | 0
A16C G82U | 0.201
C24U U65A | 0.469
G11C G74A | 0.117

Variant | self-cleavage
C30A U72C | 0.142
U12C G68C | 0.145
C66U U69C | 0.92
U12G U37G | 0.277
C66U U72C | 0.518
A45G A87U | 0.911
A56C A78G | 0.706
A56G U65C | 1.05
G34A G74C | 0.102
G29C A71U | 0.122
C3G A56U | 0.769
U9A C57G | 1.18
C62U G67C | 0.923
G40U U46G | 0.136
G53C G68C | 0.372
C63A G82C | 0.122
G35C C58U | 0.231
A78U C85U | 0.18
C24G C26A | 0.886
G28A G59A | 0.0573
U12G C26G | 1.08
C3A C58A | 0.609
C36G C63A | 0.269
C19G A78U | 0.0773

Variant | self-cleavage
A51G G67U | 0.65
C49A C66A | 0.786
C22U A45G | 0.656
G29U C49U | 0.0583
C24U G40U | 0.337
C24U C58A | 0.789
A51G C63A | 0.734
G2A C26A | 0.216
G11U G53A | 0.427
G38C C44A | 0.0354
C3G C66G | 0.761
G76C A78U | 0.339
G6A A43C | 0.0489
U9A G11U | 0.312
G34C U79C | 0.227
G6C C61A | 0.161
U69C U79A | 0.684
G6A A8U | 0.475
C4U A51G | 0.467
G31C G53C | 0.332
G38C G82U | 0.162
A56G A83G | 0.831
C44U U72C | 0.779
C18U C44U | 0.258

Variant | self-cleavage
U27G C41G | 0.802
G55C C86G | 1.09
G17U G68C | 0.542
G10A C41A | 0.604
C14G U20G | 0.151
G10U G68C | 0.564
G25A C63A | 0.125
C4A | 0.315
C3A U79C | 0.106
G31A U46A | 0.108
G68A A78U | 0.277
C14G C30G | 0.0692
G5U A43G | 0
A43G C66U | 0.672
U9C U46C | 0.831
C32U C57U | 0.843
C24U A42U | 0.17
U12A U46C | 0
C49U G52U | 0.687
C13U C33A | 0.0923
G40A C75A | 0.0831
C13G G25U | 0.232
C36G U46G | 0.0692
G25C U60G | 0.101

Variant | self-cleavage
G6U G29C | 0.119
C24U C26G | 0.615
C4G C19U | 0.0779
U12G C48G | 0.831
G25C C66U | 0.0563
A16G C26G | 0.831
G2A C85A | 0.268
C3G A87U | 0.875
C66U A70G | 0.903
U9C C75G | 0
U27A G82C | 0.322
C22A C86U | 0.293
G2U G38C | 0.0181
C7G C30A | 0.0361
C57G C61G | 1.08
U12G U27G | 0.639
U37A A71C | 0.19
G11A A83G | 0.0831
C3G G6C | 0.0475
A51U G74A | 0.288
U20G U47A | 0.0831
U37A U47G | 0.222
